The Kd is a measure of binding affinity in units of concentration. Lower therefore signals a tighter complex.

Kd data for 24 molecules are collected here from patent US20230192896A1 (published 2023).

The target in the assay is free FIXa (activated Factor IX) (UniProt P00740 47-191; P00740 227-461). Put plainly: BLI. A general note: Biolayer interferometry detects binding as a change in optical thickness at a sensor tip.

Changes are numbered by the printed parent chain.

B1: BIIB-9-465 (antibody, V domains shown)
VH: QVQLVQSGAEVKKPGASVKVSCKASGYTFTSYYMVWVRQAPGQGLEWMGIINPSGGSTSYAQKFQGRVTMTRDTSTSTVYMELSSLRSEDTAVYYCARSPTDGYYFDLWGRGTLVTVSS
VL: DIQMTQSPSTLSASVGDRVTITCRASQSINSWLAWYQQKPGKAPKLLISDASSLESGVPSRFSGSGSGTEFTLTISSLQPDDFATYYCQQYEIFPFTFGGGTKVEIK
In turn, B1 displayed a Kd of 19.8 nM.

B2: BIIB-9-425 (antibody, V domains shown)
VH: QVQLVQSGAEVKKPGASVKVSCKASGYTFTSYYMHWVRQAPGQGLEWMGIINPSGGSTSYAQKFQGRVTMTRDTSTSTVYMELSSLRSEDTAVYYCAREPTWDVAYDYWGQGTLVTVS
VL: EIVLTQSPGTLSLSPGERATLSCRASQSVSSDYLAWYQQKPGQAPRLLIYGASSRATGIPDRFSGSGSGTDFTLTISRLEPEDFAVYYCQQYDSHPYTFGGGTKVEIK
B2 had a Kd of 5.46 nM.

B3: BIIB-9-484 (antibody, V domains shown)
VH: EVQLVESGGGLVKPGGSLRLSCAASGFTFSSYSMNWVRQAPGKGLEWVSSISSSSSYIYYADSVKGRFTISRDNAKNSLYLQMNSLRAEDTAVYYCARDVGGYAGYYGMDVWGQGTTVTVSS
VL: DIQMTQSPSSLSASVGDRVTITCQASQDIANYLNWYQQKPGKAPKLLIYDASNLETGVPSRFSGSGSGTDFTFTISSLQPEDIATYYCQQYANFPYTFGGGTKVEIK
For B3, the Kd came to 37.7 nM.

B4: BIIB-9-615 (antibody, V domains shown)
VH: QVQLVQSGAEVKKPGASVKVSCKASGYTFTSYYMHWVRQAPGQGLEWMGIINPSGGSTSYAQKFQGRVTMTRDTSTSTVYMELSSLRSEDTAVYYCARDSPSSSSYWSLDLWGRGTLVTVSS
VL: EIVLTQSPATLSLSPGERATLSCRASQSVSSYLAWYQQKPGQAPRLLIYDASNRATGIPARFSGSGSGTDFTLTISSLEPEDFAVYYCQQSCHWPWTFGGGTKVEIK
In the case of B4, the Kd is 23.2 nM.

B5: BIIB-9-433 (antibody, V domains shown)
VH: QLQLQESGPGLVKPSETLSLTCTVSGGSISSSRYYWGWIRQPPGKGLEWIGSIYYSGSTYYNPSLKSRVTISVDTSKNQFSLKLSSVTAADTAVYYCARDAGYSAELFDYWGQGTLVTVSS
VL: B4 VL with C92S, H93A, W94Y, W96P
For the molecule B5, binding was put at a Kd of 16.4 nM.

B6: BIIB-9-1270 (antibody, V domains shown)
VH: QVQLVQSGAEVKKPGASVKVSCKASGYTFTSYYMHWVRQAPGQGLEWMGIINPSGGSTSYAQKFQGRVTMTRDTSTSTVYMELSSLRSEDTAVYYCARDTGGYAFDIWGQGTLVTVSS
VL: B4 VL with C92A, H93D, W94F, W96F
B6 returned a dissociation constant Kd of 24.2 nM.

B7: BIIB-9-470 (antibody, V domains shown)
VH: EVQLVESGGGLVQPGGSLRLSCAASGFTFSSYWMSWVRQAPGKGLEWVANIKQDGSEKYYVDSVKGRFTISRDNAKNSLYLQMNSLRAEDTAVYYCARDAGIAWALDYWGQGTLVTVS
VL: DIQMTQSPSTLSASVGDRVTITCRASQSISSWLAWYQQKPGKAPKLLIYKASSLESGVPSRFSGSGSGTEFTLTISSLQPDDFATYYCQHPHSWTFGGGTKVEIK
Take B7: binding was put at a Kd of 19.6 nM.

B8: BIIB-9-606 (antibody, V domains shown)
VH: QVQLVQSGAEVKKPGASVKVSCKASGYTFTSYYMHWVRQAPGQGLEWMGIINPSGGSTSYAQKFQGRVTMTRDTSTSTVYMELSSLRSEDTAVYYCARTKWSSSPYGMDVWGQGTTVTVSS
VL: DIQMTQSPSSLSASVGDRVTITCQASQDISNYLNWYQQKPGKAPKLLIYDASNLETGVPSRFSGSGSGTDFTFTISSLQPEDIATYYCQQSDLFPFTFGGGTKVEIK
The molecule B8 displayed a Kd of 16 nM.

B9: BIIB-9-582 (antibody, V domains shown)
VH: B8 VH with H35V, T99A, K100P, W101T, S102Y, S103F, S104Y, P105S
VL: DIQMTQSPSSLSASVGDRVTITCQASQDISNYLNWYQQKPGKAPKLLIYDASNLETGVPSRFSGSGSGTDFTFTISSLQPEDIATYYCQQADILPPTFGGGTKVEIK
With B9, the Kd is 14.2 nM.

B10: BIIB-9-585 (antibody, V domains shown)
VH: QLQLQESGPGLVKPSETLSLTCTVSGGSISSSDYYWGWIRQPPGKGLEWIGSIYYSGSTYYNPSLKSRVTISVDTSKNQFSLKLSSVTAADTAVYYCAREVGTYYYGLDFWFDPWGQGTLVTVSS
VL: DIQMTQSPSSVSASVGDRVTITCRASQGISSWLAWYQQKPGKAPKLLIYAASSLQSGVPSRFSGSGSGTDFTLTISSLQPEDFATYYCQQANSYPITFGGGTKVEIK
Regarding B10, the affinity, expressed as Kd, was 12.4 nM.

B11: BIIB-9-415 (antibody, V domains shown)
VH: QVQLVQSGAEVKKPGASVKVSCKASGYTFTSYYMHWVRQAPGQGLEWMGIINPSGGSTSYAQKFQGRVTMTRDTSTSTVYMELSSLRSEDTAVYYCARDGLSSGYYWDNWGQGTLVTVSS
VL: B10 VL with S30D, A91G, N92D, S93A, Y94F, I96F
B11 displayed a Kd of 14.4 nM.

B12: BIIB-9-1283 (antibody, V domains shown)
VH: QVQLVQSGAEVKKPGASVKVSCKASGYTFTSYYMVWVRQAPGQGLEWMGIINPSGGSTSYAQKFQGRVTMTRDTSTSTVYMELSSLRSEDTAVYYCARVPTYRYSYLAFDIWGQGTMVTVSS
VL: B10 VL with N92S, Y94F, I96P
Turning to B12, binding was put at a Kd of 37 nM.

B13: BIIB-9-1272 (antibody, V domains shown)
VH: B6 VH
VL: B10 VL with N92S, Y94F, I96F
As to B13, binding was characterised by a dissociation constant (Kd) of 45.6 nM.

B14: BIIB-9-414 (antibody, V domains shown)
VH: B8 VH with T99D, K100P, W101Y, S103Y, S104G, P105M, G107Y, M108F, V110Y, T116L
VL: B10 VL with A91G, N92D, S93V, Y94F, I96F
In the case of B14, the affinity, expressed as Kd, was 16.6 nM.

B15: BIIB-9-1269 (antibody, V domains shown)
VH: B1 VH with V35H, S99D, P100R, T101G, D102Q, G103Y, Y105H
VL: B10 VL with T20A, N92S, Y94F, I96F
For the molecule B15, the Kd was 45.1 nM.

B16: BIIB-9-1274 (antibody, V domains shown)
VH: B6 VH
VL: B10 VL with Y94F, I96F
B16 registered an equilibrium dissociation constant (Kd) of 28.4 nM.

B17: BIIB-9-629 (antibody, V domains shown)
VH: QVQLVQSGAEVKKPGASVKVSCKASGYTFTSYYMHWVRQAPGQGLEWMGVINPSGGSTSYAQKFQGRVTMTRDTSTSTVYMELSSLRSEDTAVYYCARDPSQDYATGTGWFDPWGQGTLVTVSS
VL: DIQLTQSPSSLSASVGDRVTITCQASQDISNYLNWYQQKPGKAPKLLIYDASNLETGVPSRFSGSGSGTDFTFTISSLQPEDIATYYCQQLDSLPPTFGGGTKVEIK
The molecule B17 had a Kd of 25.6 nM.

B18: BIIB-9-475 (antibody, V domains shown)
VH: QVQLQESGPGLVKPSETLSLTCTVSGGSISSYYWSWIRQPPGKGLEWIGSIYYSGSTNYNPSLKSRVTISVDTSKNQFSLKLSSVTAADTAVYYCARDVGGYDYGVGAFDIWGQGTMVTVSS
VL: B17 VL with L4M, S30T, L91S, D92S, S93N, L94F, P96L
On to B18, for which the affinity, expressed as Kd, was 5.93 nM.

B19: BIIB-9-397 (antibody, V domains shown)
VH: QVQLQESGPGLVKPSETLSLTCAVSGYSISSGYYWAWIRQPPGKGLEWIGSIYHSGSTYYNPSLKSRVTISVDTSKNQFSLKLSSVTAADTAVYYCARDVWYVGGFDPWGQGTLVTVSS
VL: B17 VL with L4M, L91S, S93D, L94H
B19 displayed a Kd of 4.89 nM.

B20: BIIB-9-460 (antibody, V domains shown)
VH: QVQLVQSGAEVKKPGASVKVSCKASGYTFTSYYMHWVRQAPGQGLEWMGIINPSGGSTSYAQKFQGRVTMTRDTSTSTVYMELSSLRSEDTAVYYCARDISTDGESSLYYYMDVWGKGTTVTVSS
VL: EIVMTQSPATLSVSPGERATLSCRASQSVSSNLAWYQQKPGQAPRLLIYGASTRATGIPARFSGSGSGTEFTLTISSLQSEDFAVYYCQQHDNFPFTFGGGTKVEIK
Molecule B20 registered a dissociation constant (Kd) of 20.1 nM.

B21: BIIB-9-590 (antibody, V domains shown)
VH: B11 VH with G100Q, L101E, S102W, S103A, G104Y, Y106G, W107M, N109V, L115T
VL: B4 VL with S91V, C92D, H93N, W94F, W96L
For the molecule B21, the Kd worked out at 11.3 nM.

B22: BIIB-9-1284 (antibody, V domains shown)
VH: B12 VH
VL: B20 VL with M4L, S30G, D92N, N93H, F94L, F96I
In turn, B22 registered a Kd of 41.2 nM.

B23: BIIB-9-1271 (antibody, V domains shown)
VH: B6 VH
VL: B20 VL with E70D, S80P, V85T, H91G, D92F, N93S
On to B23, for which binding was put at a Kd of 44.5 nM.

B24: BIIB-9-592 (antibody, V domains shown)
VH: QLQLQESGPGLVKPSETLSLTCTVSGGSISSNSYYWGWIRQPPGKGLEWIGSIYYSGSTYYNPSLKSRVTISVDTSKNQFSLKLSSVTAADTAVYYCARDSNYDSSGYALYYYGMDVWGQGTTVTVSS
VL: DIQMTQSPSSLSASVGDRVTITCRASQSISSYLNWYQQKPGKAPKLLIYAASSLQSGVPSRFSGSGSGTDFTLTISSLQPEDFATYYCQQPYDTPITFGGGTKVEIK
For B24, the Kd was found to be 21.7 nM.
